Positions count from the first letter of the chain named.
T1: human ASCL1 (Achaete-scute homolog 1) (human, UniProt P50553 1-236)
T1 construct: also called hASCL1; immobilized human ASCL1
T1 sequence: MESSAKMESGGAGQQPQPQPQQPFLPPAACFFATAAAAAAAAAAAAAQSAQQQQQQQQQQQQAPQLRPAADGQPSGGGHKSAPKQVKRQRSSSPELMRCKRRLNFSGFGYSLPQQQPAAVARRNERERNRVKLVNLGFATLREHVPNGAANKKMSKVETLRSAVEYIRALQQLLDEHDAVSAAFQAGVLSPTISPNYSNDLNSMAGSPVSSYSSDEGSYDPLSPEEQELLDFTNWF

T2: hASCL1 expressed in HEK-293T cells (pLMEGPA-hASCL1-NFlag) (human, UniProt P50553 1-236)
T2 construct: also called HEK293T cells transiently transduced with hASCL1; ASCL1 engineered cells
T2 sequence: T1 sequence

B1: SC72.96 (antibody, V domains shown)
VH: EVQLQQSGPELVKPGASVKMSCKASGYTLTAYNIHWVKQSHGKSLEWIGFINPHSGGTTYNEKFKGKATLTVNKSSSTANMELRSLTSEDSAVYYCASIYYYGSSYFDHWGQGTTLTVSS
VL: DIQMTQSPASLSASVGETVTMTCRASENIHSNLVWYQQKQGKSPQLLVYAATNLADGVPSRFSGSGSGSQFSLKIDSLQPEDFGSYLCQHFYGTPRTFGGGTKLEIK
notes: Murine monoclonal antibody from a hybridoma; light chain amplified with kappa primers
B2: SC72.132 (antibody, V domains shown)
VH: EVKLVESEGGLVQPGSSMKLSCTASGFTFSDYYMAWVRQVPEKGLEWVATIDYDGSNTYYLDSLKSRFIISRDNAKNILYLQMSSLKSEDTATYYCARDGGYDEDYFDYWGQGTTLTVSS
VL: DIVMSQSPSSLAVSVGEKVTLSCKSSQTLLYSSNQQNYLAWYQQKPGQSPKLLIYWASTRESGVPDRFTGSGSGTDFTLTISSVKAEDLAVYYCHQYYTYPFTFGSGTKLEIK
notes: as for B1
B3: SC72.181 (antibody, V domains shown)
VH: QVQLQQPGAEVVKPGASVRLSCKASGYTFTSYWINWVKQRPGQGLEWIGNIYPGSSSTNYNEKFKSKATLTVDTSSSTAYMQLSSLTSDDSAVYYCSRSESDYWGQGTTLTVSS
VL: DIVLTQSPASLAVSLGQRATISCKASQSVDDDGGTYMSWYQQKPGQPPKLLIYGVFILESGIPARFSGSGSGTDFTLNIHPVEEEDAATYYCQQSNEDPYTFGGGTKLEIK
notes: as for B1
B4: SC72.93 (antibody, V domains shown)
VH: QVQLQQSGAELVRPGASVTLSCKASGYIFIDYEMHWVKQTPVHGLEWIGSIDPETGDTVYNQKFKGKATLTADKSSSTAYMELRSLTSEDSAVYYCSRGGLDYWGQGTTLTVSS
VL: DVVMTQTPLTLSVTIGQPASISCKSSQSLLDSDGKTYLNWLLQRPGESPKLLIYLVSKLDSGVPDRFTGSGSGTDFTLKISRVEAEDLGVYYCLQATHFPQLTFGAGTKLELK
notes: Murine monoclonal antibody from a hybridoma; same VL as SC72.2; light chain amplified with kappa primers
B5: SC72.28 (antibody, V domains shown)
VH: DVQLQQSGAELVRPGALVKLSCKASGFNIKDYLIHWVKQRPEQGLEWIGCIDPENGNTIYDPRFQGKAKITSDTSSTTAYLRLTSLTSEDTAVYYCGRGGLDYWGQGTTLTVSS
VL: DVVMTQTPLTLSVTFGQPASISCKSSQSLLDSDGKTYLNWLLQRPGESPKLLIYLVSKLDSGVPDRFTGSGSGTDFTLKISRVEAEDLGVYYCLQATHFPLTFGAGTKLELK
notes: as for B1
B6: SC72.52 (antibody, V domains shown)
VH: QVQLQQPGSVLVRPGASVKLSCKASGYTFTSYWMHWVKQRPGQGLEWIGEIYPNSGRTNYNEKFKGKATLTVDTSSSTAYVDLSSLTSEDSAVYYCHYYDDNYGYWGQGTTLTVSS
VL: DIVITQDELSNPVTSGESVSISCRSSKSLLYKDGKTYLNWFLQRPGQSPQLLIYLMSTRASGVSDRFSGSGSGTDFTLEISRVKAEDVGVYYCQQFVEYPLTFGAGTKLELK
notes: as for B1
B7: SC72.63 (antibody, V domains shown)
VH: EVQLLQSGPELVKPGASVKMSCKASGYTLTDYNLHWVKQSHAKSLEWIGYINPYNGVTSYNQRFKGKATLTVNKSSSTAFMEFRSLTSEDSAVYYCVSLYYGDDPFACWGQGTLVTVST
VL: DIQMTQSPASLSASVGETVTMTCRASENIYSNLAWYQQKQGKSPQLLVYAATNLADDVPSRFSGSGSGTQFSLKINSLQPEDFGIYYCHHFYGSPLTFGAGTKLELK
notes: as for B1
B8: SC72.76 (antibody, V domains shown)
VH: QVQLKESGPGLVAPSQSLSITCTVSDFSLTNYAVHWVRQSPGKGLEWLGVIWSDGNTDYNAPFISRLSISKDNSKSQVFFKMNSLQADDTAIYYCASYGDSAYWGQGTLVTVSA
VL: DIVLTQSPASLTVSLGQRATISCRASQSVRTSNYSYMHWYQQKPGQPPKLLIKYASNLESGVPARFSGSGSGTDFTLNIHPVEEEDTATYYCQHHWEIPFTFGGGTKLEIK
notes: as for B1
B9: SC72.91 (antibody, V domains shown)
VH: QVQLQQSGPEVVKPGASVKLSCKASGYTFTTYDINWVKQRPGQGLEWIGWIYFRDGTNKYNEKFKGKATLTVDTSSSTAYMELHSLTSEDSAVYFCASVYDGYYVSGFDIMDYWGQGTSVTVSS
VL: DVVLTQTPLSLPVSLGDQASIYCRSSQSIVHSNGNTYFEWYLQKPGQSPKLLIYKVSNRLSGVPDRFSGSGSGTDFTLKISRVEAVDLGIYYCFQASHVPFTFGAGTKLELK
notes: as for B1
B10: SC72.94 (antibody, V domains shown)
VH: QVQLQQPGTELVKPGASVKLSCKASAYTFTSLWIHWVKQRPGQGLEWIGDINPSIGDTYYNERFKSKATLTVDKSSSTAYMQLSSLTSEDSAVYYCTTGDSWGQGTTLTVSS
VL: DIQMNQSPSSLSASLGDTITITCRASQGISIWLSWYQQKPGNIPKLLIYKASNLHTGVPPSFSGSGSGTDFTLTISSLQPEDIATYYCLQSQSYPWTFGGGTKLEIK
notes: as for B1
B11: SC72.216 (antibody, V domains shown)
VH: QIQLVQSGPELRKPGETVKISCKASGYTFTNYPMHWVKQAPGKGFKWMGWINTYSGVPSYADDFKGRFAFSLETSASSAYLQINNLKNEDMATYFCARHNYNSYDVFAYWGQGTLVTVSA
VL: B3 VL with L4V, D31Y, G34D, T35S, S38N, V55A, F56S, I57N
notes: Murine monoclonal antibody from a hybridoma of the second immunization campaign; light chain amplified with kappa primers
B12: SC72.201 (antibody, V domains shown)
VH: EVNLEESGGGLVQPGGSMKLSCVASGFTFSNYWMNWVRQSPEKGLEWVAQIRSKSDNYATHYAESVKGRFTISRDDSKSSVYLQMNNLRSEDTGIYYCRTGPDVWGTGTTVTVSS
VL: DIQMTQSPASLSVSVGETVTITCRASENIYSSLAWYQQKQGNSPQLLVYAATKLADGVPSRFSGSGSGTQYSLKINSLQSEDFGSYYCQHFWGTTWTFGGGTKLEIK
notes: as for B11
B13: SC72.165 (antibody, V domains shown)
VH: B3 VH with V11L, K13R, T28S, S57N, S66R, S97A
VL: B3 VL with L15P, D30G, D31Y, G34D, M37L, F56S, N96S
notes: as for B1

Each binder was assayed against T1, human ASCL1 (Achaete-scute homolog 1) (assay: screening of Example 2 (ELISA) or cells).

binding result	Binder
binds	B1
binds	B2
binds	B3
binds	B4
binds	B5
binds	B6
binds	B7
binds	B8
binds	B9
binds	B10

Each binder was assayed against T1, human ASCL1 (Achaete-scute homolog 1) (assay: ELISA with purified antibody: staining against hASCL1 divided by staining against an irrelevant protein (form of the coated hASCL1 not stated in paragraph 180; the screen it confirms used hASCL1-GST)).
Procedure: A second immunization campaign was conducted similar to the first with the following modifications: 1) 299×10⁶ cells) were fused with non-secreting SP2/0-Ag14 myeloma cells (ATCC #CRL-1581) at a ratio of 1:1 by electro cell fusion using a model BTX Hybrimmune System (BTX Harvard Apparatus). On day 6, after the fusion, the hybridoma cells were not frozen and were sorted on that day. After the 10 day culture, 6×384 clones were screened by ELISA selecting for antibodies positive to hASCL1-GST (glutathione S-transferase) and counter screened against an irrelevant protein tagged with GST. As part of this, ALK phosphatase-labeled goat anti-mouse IgG diluted 1:5000 in PBSA was used instead of HRP-labeled goat anti-mouse IgG diluted 1:10:000. ELISA samples were analyzed at OD405 instead of OD450.
To confirm the results of the ELISA soup screen a similar ELISA was run on purified antibodies from selected clones. The ELISA positive ratio, (defined as ELISA staining against hASCL1 divided by the ELISA staining against an irrelevant protein) was then determined and set forth in FIG. 3 in the column labeled “ELISA positive ratio”.

ELISA positive ratio	Binder
13	B11
11.7	B12
14.2	B13

What follows are binders tested against T2, hASCL1 expressed in HEK-293T cells … (assay: intracellular flow cytometry (gMFI) on permeabilised HEK293T cells transduced with hASCL1, control cells transduced with GFP only; antibody 10 ug/ml).
Procedure: 1×10⁵ per well of HEK293T cells transiently transduced with hASCL1(as described in Example 1), and HEK293T cells transiently transduced with GFP only were washed with cold PBS and then incubated with a solution of PBS and a Dylight 450 Fixable viability dye for 30 minutes. After incubation, the cells were washed twice with PBS. To permeate the cell walls 100 ul of BD Cytofix/Cytoperm was added to the cells and left to incubate for 20 minutes on ice. Cells were then washed with BD Phosflow perm/wash solution. Purified antibody at a final concentration of 10 ug/ml was then added to the cells in 45 ul of BD Phosflow perm/wash solution, incubated on ice for 30 minutes, and then washed with BD Phosflow perm/wash 2 times. 50 ul of Alexa Fluor 647 conjugated Goat-anti-mouse IgG secondary antibody, was added at 1 ug/ml dissolved in BD Phosflow perm/wash and incubated on ice for 30 minutes, then washed with BD Phosflow perm/wash 3 times. The cells were then resuspended in FACS buffer to be read on BD FACS Canto according to the manufacturer's instructions.
The FlowJo software package (FlowJo LLC) was used to calculate gMFI (geometric Mean Fluorescence Intensity) for each of the anti-ASCL1 antibodies.

IC ratio	Binder
1.86	B11
0.67	B12
3.69	B13

From patent US20190194319A1 (AbbVie / Abbott, published 2019)
